B1: conjugate of humanized anti-TfR Fab 5H12 VH5 (C33D)/Vκ4 with DMPK-targeting oligonucleotide ASO300 (Fab, V domains shown)
VH: QVQLVQSGAEVKKPGASVKVSCKASGYSFTDYDINWVRQAPGQGLEWMGWIYPGSGNTRYSERFKGRVTITRDTSASTAYMELSSLRSEDTAVYYCAREDYYPYHGMDYWGQGTLVTVSS
VL: DIVMTQSPDSLAVSLGERATINCRASESVDGYDNSFMHWYQQKPGQPPKLLIFRASNLESGVPDRFSGSGSGTDFTLTISSLQAEDVAVYYCQQSSEDPWTFGQGTKLEIKR
modifications: oligonucleotide ASO300 conjugated to the Fab via linker; residue and chain not stated
notes: also called 5H12 (VH5-C33D/Vk4) conjugate
B2: conjugate of humanized anti-TfR Fab 5H12 VH5 (C33Y)/Vκ3 with DMPK-targeting oligonucleotide ASO300 (Fab, V domains shown)
VH: B1 VH with D33Y
VL: B1 VL with M4L, G72R
modifications: oligonucleotide ASO300 conjugated to the Fab via linker; residue and chain not stated
notes: also called 5H12 (VH5-C33Y/Vk3) conjugate
B3: conjugate of humanized anti-TfR Fab 3A4 VH3/Vκ4 with DMPK-targeting oligonucleotide ASO300 (Fab, V domains shown)
VH: EVQLVQSGSELKKPGASVKVSCTASGFNIKDDYMYWVRQPPGKGLEWIGWIDPENGDTEYASKFQDRVTVTADTSTNTAYMELSSLRSEDTAVYYCTLWLRRGLDYWGQGTLVTVSS
VL: DIVMTQSPLSLPVTPGEPASISCRSSKSLLHSNGYTYLFWFQQRPGQSPRLLIYRMSNLASGVPDRFSGSGSGTDFTLKISRVEAEDVGVYYCMQHLEYPFTFGGGTKVEIKR
modifications: oligonucleotide ASO300 conjugated to the Fab via linker; residue and chain not stated
notes: also called 3A4 (VH3/Vk4) conjugate
B4: humanized anti-TfR Fab 5H12 VH5 (C33D)/Vκ4 (Fab, V domains shown)
VH: B1 VH
VL: B1 VL
notes: also called 5H12 (VH5-C33D/Vk4)
B5: humanized anti-TfR Fab 3M12 VH3/Vκ3 (Fab, V domains shown)
VH: QVQLQESGPGLVKPSQTLSLTCSVTGYSITSGYYWNWIRQPPGKGLEWMGYITFDGANNYNPSLKNRVSISRDTSKNQFSLKLSSVTAEDTATYYCTRSSYDYDVLDYWGQGTTVTVSS
VL: DIQMTQSPSSLSASVGDRVTITCRASQDISNFLNWYQQKPGQPVKLLIYYTSRLHSGVPSRFSGSGSGTDFTLTISSLQPEDFATYYCQQGHTLPYTFGQGTKLEIKR
notes: also called 3M12 (VH3/Vk3)
B6: humanized anti-TfR Fab 3M12 VH4/Vκ2 (Fab, V domains shown)
VH: B5 VH with S23T, M49I
VL: B5 VL with Y87F
notes: also called 3M12 (VH4/Vk2)
B7: humanized anti-TfR Fab 3A4 VH3/Vκ4 (Fab, V domains shown)
VH: B3 VH
VL: B3 VL
notes: also called 3A4 (VH3/Vk4)
B8: 3-M12 mouse monoclonal anti-TfR antibody (antibody, V domains shown)
VH: DVQLQESGPGLVKPSQSLSLTCSVTGYSITSGYYWNWIRQFPGNKLEWMGYITFDGANNYNPSLKNRISITRDTSKNQFFLKLTSVTTEDTATYYCTRSSYDYDVLDYWGQGTTLTVSS
VL: DIQMTQTTSSLSASLGDRVTISCRASQDISNFLNWYQQRPDGTVKLLIYYTSRLHSGVPSRFSGSGSGTDFSLTVSNLEQEDIATYFCQQGHTLPYTFGGGTKLEIK
notes: Mouse monoclonal IgG
B9: 3-A4 mouse monoclonal anti-TfR antibody (antibody, V domains shown)
VH: EVQLQQSGAELVRPGASVKLSCTASGFNIKDDYMYWVKQRPEQGLEWIGWIDPENGDTEYASKFQDKATVTADTSSNTAYLQLSSLTSEDTAVYYCTLWLRRGLDYWGQGTSVTVSS
VL: DIVMTQAAPSVPVTPGESVSISCRSSKSLLHSNGYTYLFWFLQRPGQSPQLLIYRMSNLASGVPDRFSGSGSGTAFTLRISRVEAEDVGVYYCMQHLEYPFTFGGGTKLEIK
notes: Mouse monoclonal IgG; also called 3-A04

Residue numbers refer to the chain shown, from its start. In names and notes the source's numbering stands.

The target of the first assay is T1, recombinant human TfR1 (transferrin receptor protein 1) (human, UniProt P02786 89-760).
T1 construct: Recombinant protein in SPR and ELISA; they were assigned to this molecule; also called hTfR1; huTfR1
In words: ELISA, recombinant TfR1 coated, Fab-ASO300 conjugate (row 'Conjugate binding affinity ELISA'). For orientation: ELISA stands for enzyme-linked immunosorbent assay.
What is called EC50 is the concentration that produces a half-maximal response. Take B1: the EC50 stood at 110 nM.
Take B2: the EC50 turned out to be 33.4 nM.
Still for that read-out and setting: for B3 the value was 2.8 nM.

The target of a further assay is T2, recombinant cynomolgus monkey (Macaca fascicularis) TfR1 (cynomolgus monkey (Macaca fascicularis), UniProt Q5RDH6 87-760 (Pongo abelii entry), limits assumed).
T2 construct: Recombinant protein; also called cTfR1; cyTfR1
T2 chain: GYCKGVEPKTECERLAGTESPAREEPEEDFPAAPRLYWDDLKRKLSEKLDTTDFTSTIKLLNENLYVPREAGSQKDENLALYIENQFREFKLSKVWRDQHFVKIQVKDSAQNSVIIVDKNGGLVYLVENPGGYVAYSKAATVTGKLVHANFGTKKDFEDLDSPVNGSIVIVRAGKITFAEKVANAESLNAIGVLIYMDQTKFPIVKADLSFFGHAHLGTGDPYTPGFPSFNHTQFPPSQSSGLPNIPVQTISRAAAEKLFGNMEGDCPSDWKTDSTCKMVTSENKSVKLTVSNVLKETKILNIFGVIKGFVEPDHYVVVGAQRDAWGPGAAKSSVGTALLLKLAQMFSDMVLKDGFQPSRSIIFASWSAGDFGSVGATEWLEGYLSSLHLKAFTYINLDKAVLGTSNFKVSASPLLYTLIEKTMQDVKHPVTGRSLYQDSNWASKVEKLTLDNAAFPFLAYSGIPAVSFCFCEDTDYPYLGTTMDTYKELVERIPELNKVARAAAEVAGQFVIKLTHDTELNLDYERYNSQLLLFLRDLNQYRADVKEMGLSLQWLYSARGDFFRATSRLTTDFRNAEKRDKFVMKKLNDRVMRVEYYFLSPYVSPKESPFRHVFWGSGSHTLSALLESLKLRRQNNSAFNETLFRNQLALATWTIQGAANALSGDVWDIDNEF
The description is as above.
Take B1: the EC50 was 10.2 nM.
With B2, the EC50 is 2.3 nM.
For the molecule B3, the concentration giving a half-maximal response (EC50) was 7.6 nM.

The target of another assay is T1, recombinant human TfR1 (transferrin …). Nature of the assay: Biacore, d25; TfR1 species not stated. A general note: Surface plasmon resonance follows binding to a sensor surface in real time, without labels.
What is called Kd is a measure of binding affinity in units of concentration. For B4, the equilibrium dissociation constant (Kd) came out at 3.01 nM.
Consider B5, for which the Kd is 0.515 nM.
On to B6, for which the Kd was 0.51 nM.
Same read-out and setting: the same measure for B7: 1.35 nM.

For the next assay the target is unchanged. Nature of the assay: Avg KD, antibody alone; method not stated in Table 11.
As to B8, the Kd came out at 0.768 nM.
As for B9, the Kd is 0.436 nM.

A further assay deals with T2, recombinant cynomolgus monkey (Macaca …). The description is as above.
As for B8, the Kd turned out to be 5.18 nM.
The same measure, in the same setting: the same measure for B9: 2.32 nM.

The next assay deals with T1, recombinant human TfR1 (transferrin …). In words: Table 14, Fab-ASO300 conjugate; method not named.
Regarding B1, the “DMPK oligo conjugate binding” value was 110 nM.
As to B3, the “DMPK oligo conjugate binding” value came to 2.84 nM.

In the next assay the target is T2, recombinant cynomolgus monkey (Macaca …). Nature of the assay: Table 14, Fab-ASO300 conjugate; method not named.
Take B1: the “DMPK oligo conjugate binding” value was found to be 10.2 nM.
Still for that read-out and setting: for B3 the value was 7.59 nM.

Another assay deals with T1, recombinant human TfR1 (transferrin …). In words: Carterra LSA SPR, 25 C; IgG captured, hTfR1 as analyte; 1:1 fit. The protocol: Selected anti-TfR1 antibodies were tested for their binding affinity to human TfR1 for measurement of Ka (association rate constant). Kd (dissociation rate constant), and K_D (affinity). […] The binding experiment was performed on Carterra LSA at 25° C. An anti-mouse IgG and anti-human IgG antibody "lawn" was prepared on a HC30M chip by amine coupling. The IgGs were captured on the chip. Dilution series of hTfR1, cyTfR1, and hTfR2 were injected to the chip for binding (starting from 1000 nM, 1:3 dilution, 8 concentrations).
Binding data were referenced by subtracting the responses from a buffer analyte injection and globally fitting to a 1:1 Langmuir binding model for estimate of Ka (association rate constant), Kd (dissociation rate constant), and K_D (affinity) using the Carterra™ Kinetics software, 5-6 concentrations were used for curve fitting.
By kon is commonly meant a measure of how fast the partners come together. For B8, the Kd was 0.768 nM and the kon is 166000 M⁻¹ s⁻¹.
With B9, the Kd turned out to be 0.436 nM and the kon is 447000 M⁻¹ s⁻¹.

For a further assay the target is unchanged. Nature of the assay: Biacore, d0; TfR1 species not stated.
With B4, the Kd was 0.991 nM.
As to B5, the Kd is 0.345 nM.
Still for that read-out and setting: for B6 the value was 0.396 nM; for B7, 1.5 nM.

The next assay has the same target. Nature of the assay: ELISA, recombinant TfR1 coated, unconjugated Fab (row 'Fab binding affinity ELISA').
With B4, the concentration giving a half-maximal response (EC50) was 6 nM.
In the case of B5, the EC50 is 0.6 nM.
In the case of B6, the EC50 was determined as 0.4 nM.
For B7, the EC50 was 1.5 nM.

Another assay concerns the target T2, recombinant cynomolgus monkey (Macaca …). The description is as above.
B4: the EC50 is 3.5 nM.
On to B5, for which the EC50 was 4.7 nM.
Same read-out and setting: the same measure for B6: 1.4 nM.
Regarding B7, the EC50 was 122 nM.

In the next assay the target is T1, recombinant human TfR1 (transferrin …). In words: Table 14, unconjugated Fab, d0; method not named (values equal ELISA row of Table 13).
Regarding B4, the Binding affinity worked out at 6 nM.
Still for that read-out and setting: the same measure for B5: 0.6 nM; for B6: 0.4 nM; for B7: 1.5 nM.

Another assay addresses T2, recombinant cynomolgus monkey (Macaca …). The description is as above.
Consider B4, for which the Binding affinity is 3.5 nM.
Still for that read-out and setting: the same measure for B5: 4.7 nM; for B6: 1.4 nM; for B7: 122 nM.

For a further assay, the target named is T1, recombinant human TfR1 (transferrin …). Nature of the assay: Table 14, unconjugated Fab, d9 (after 9 days at 40 C); method not named.
In the case of B4, the Binding affinity was found to be 92.3 nM.
Same read-out and setting: for B5 the value was 1.49 nM; for B6, 0.5 nM; for B7, 0.46 nM.

Another assay deals with T2, recombinant cynomolgus monkey (Macaca …). The description is as above.
Turning to B4, the Binding affinity was 0.63 nM.
Same read-out and setting: for B5 the value was 15.6 nM.
Same read-out and setting: the same measure for B6: 5.01 nM.
For B7, the Binding affinity is 878 nM.

A further assay addresses T1, recombinant human TfR1 (transferrin …). In words: kinetic analysis (Biacore), Table 7; TfR1 species not stated.
The koff is a measure of how fast the partners let go of each other. In the case of B4, the Kd amounted to 0.991 nM, the koff is 0.000672 s⁻¹ and the kon is 678000 M⁻¹ s⁻¹.
For B5, the Kd was 0.345 nM, the koff worked out at 8.34e-05 s⁻¹ and the kon was 242000 M⁻¹ s⁻¹.
As for B6, the Kd came out at 0.396 nM, the koff came out at 9.98e-05 s⁻¹ and the kon is 252000 M⁻¹ s⁻¹.
Regarding B7, the Kd is 1.5 nM.
